Measurements as given in article PMC6775958 (Pharmacology Research & Perspectives, 2019).
Where “and” joins values, the source holds several entries; their conditions need not be identical. Identical values can stand only once. Like-named read-outs stand apart in the source and are kept apart here.

Columns and labels:
[1] = conscious dogs, cited from earlier work; for Bioavailability: pilot experiments
[2] = Euglycemic glucose clamp; assay type: in vivo, swine; conditions: 20 IU RHI
[3] = Pharmacokinetics of RHI in anesthetized swine; assay type: in vivo; conditions: 20 IU RHI, mean ± SEM; for Cmax (peak serum concentration), Non-transformed / Tmax (time to peak serum concentration): non-compartmental
[4] = Subcutaneous, natural logarithmic scale, n = 9

Substance	Cmax after oral than after subcutaneous administration ([1]; oral ODP vs subcutaneous)	Tmax after oral than after subcutaneous administration ([1]; oral ODP vs subcutaneous)	Bioavailability ([1]; oral delivery by the ODP) [%]	Bioavailability ([1]; subcutaneous injections) [%]	Biological activity of RHI delivered by the ODP (increased demand for glucose delivery to maintain the euglycemic clamp) ([2]; ODP (jejunal wall), anesthetized swine)	Mean AUClast of glucose infusion rates ([2]; Subcutaneous, euglycemic clamp, swine, 0-420 min, mean ± SEM, n = 9) [g/min^2]	Cmax (peak serum concentration), Non-transformed ([3]; Intrajejunal wall (ODP), n = 8) [nM]	Tmax (time to peak serum concentration) ([3]; Intrajejunal wall (ODP), n = 8)	Area under the insulin concentration curve ([3]; ODP (jejunal wall), n = 8 (abstract)) [nmol/L/min]	Area under the insulin concentration curve ([3]; Subcutaneous, n = 9 (abstract)) [nmol/L/min]	AUClast, Log-transformed [3, 4] [pmol/L·min]	Cmax, Log-transformed [3, 4] [pmol/L]	Cmax (peak serum concentration), Non-transformed ([3]; Subcutaneous, n = 9) [nM]	Tmax (time to peak serum concentration) ([3]; Subcutaneous, n = 9)
human immunoglobulin G [human IgG]	higher	shorter	60	50										
recombinant human insulin [RHI]					confirmed	106 ± 10	0.517 ± 0.109	2.32 ± 0.65 h and 2.32 ± 0.7 h	83 ± 18	81 ± 10	2178 ± 49	5.74 ± 0.17	0.342 ± 0.05	4 ± 0.517 h and 3.78 ± 0.4 h
